4 molecules from US20120014941A1 (Hoffmann-La Roche, published 2012) can be followed below.

Read-outs that look alike come from different tables or passages of the source. Some results are limits rather than exact numbers.

The target of assay [1] is Cynomologus Monkey Bv8 (Genentech; PUR21590) (cynomolgus monkey). Kind of assay: SPR (BIAcore 3000, 25 C): cynomolgus monkey Bv8 coupled to CM5 chip, IgG injected; 1:1 Langmuir fit. (In SPR one partner is held on a chip, and binding of the other changes the refractive index at the surface.)
Assay [2] has the same target. Briefly: SPR, BIAcore-3000, Bv8 coupled to CM5 chip, IgG (FIG. 21).
In assay [3] the target is T1, recombinant human Bv8 (PeproTech) (human, UniProt Q9HC23-2 28-108, biotinylated (Sulfo-NHS-LC-biotin) in the two competition ELISAs with coated antibody).
T1 construct: Bought protein; also called HuBv8; prokineticin-2
T1 sequence (looked up): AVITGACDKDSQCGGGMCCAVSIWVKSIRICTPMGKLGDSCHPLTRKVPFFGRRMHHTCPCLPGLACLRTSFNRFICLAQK
Kind of assay: SPR (BIAcore 3000, 25 C): human Bv8 coupled to CM5 chip, IgG injected; 1:1 Langmuir fit; off-rate followed for 30 min. The text has this:
(§1) For binding affinity determinations of anti-Bv8 antibodies (Fab or IgG), Surface Plasmon Resonance (SRP) measurement with a BIAcore™-3000 instrument was used. Briefly, CM5 biosensor chip was activated with EDC and NHS reagents according to the supplier's instructions, and human Bv8 (PeproTech) or Cynomologus Monkey (Genentech; PUR21590) was coupled to achieve approximately 150 response units (RU), then following by blocking un-reacted groups with 1M ethanolamine. For kinetics measurements, two-fold serial dilutions of anti-Bv8 Fabs (0.19 nM to 25 nM) or IgGs (0.019 nM to 10 nM) were injected in HBS-P buffer (0.01M HEPES pH 7.4, 0.15M NaCl, 0.005% surfactant P20) at 25° C. with a flow rate of 30 μl/min. Association rates (kₒₙ) and dissociation rates (koff) were calculated using a simple one-to-one Langmuir binding model (BIAcore Evaluation Software version 3.2). The equilibrium dissociation constant (Kd) was calculated as the ratio koff/kₒₙ.

Assay [4] concerns the target T1, recombinant human Bv8 (PeproTech). Briefly: SPR (BIAcore 3000, 25 C): human Bv8 coupled to CM5 chip, IgG injected; 1:1 Langmuir fit.
Text: as §1

For assay [5] the target is unchanged. The assay is described as above.
Text: as §1
This is another data set of the same source.

Assay [6] has the same target. Briefly: SPR, BIAcore-3000, Bv8 coupled to CM5 chip, IgG (FIG. 21).
Text: as §1

Assay [7] has as its target Cynomologus Monkey Bv8 (Genentech; PUR21590) (cynomolgus monkey). Kind of assay: SPR (BIAcore 3000, 25 C): cynomolgus monkey Bv8 coupled to CM5 chip, IgG injected; 1:1 Langmuir fit; off-rate followed for 30 min.
In assay [8] the target is T1, recombinant human Bv8 (PeproTech). Briefly: competitive ELISA: antibody in serial dilution mixed with biotinylated human Bv8 (57 pM) and put on plate coated with mouse 2G9 IgG1 (m5, the competitor); streptavidin-HRP, OD 450/620; four-parameter fit. On the procedure:
Maxisorp 384 well plates were coated with 1 μg/ml parent mouse 2G9 IgG1 antibody at 25 μl/well in 50 mM sodium carbonate buffer, pH 9.6, at 4° C. overnight. Plates were washed with phosphate buffered saline (PBS) containing 0.05% polysorbate, pH 7.4 and blocked with PBS containing 0.5% BSA, 10 ppm Proclin, pH 7.4, at 80 μL1/well. After one-hour incubation at room temperature, plates were washed. A mixture of serially diluted humanized 2G9 antibodies (0.11 pM-180 nM) in PBS containing 0.5% BSA, 0.05% polysorbate 20, pH 7.4 and biotinylated human Bv8 (final concentration 0.5 ng/ml or 57 pM) were added at 25 μL1/well. After two hour incubation, plates were washed and horseradish peroxidase conjugated streptavidin (GE Healthcare) was added. After a final 30 minute incubation, plates were washed and the substrate 3,3′,5,5′-tetramethyl benzidine (Kirkegaard & Perry Laboratories) was added. The reaction was stopped by adding 1 M phosphoric acid and absorbance was read at 450 nm on a Multiskan Ascent reader (Thermo Scientific, Hudson, N.H.). For data analysis, the titration curves were fitted using a four-parameter nonlinear regression curve-fitting program and the IC₅₀ concentrations were determined (KaleidaGraph, Synergy Software, Reading, Pa.).
On the technique in general: An ELISA detects its analyte on a solid surface through an enzyme-linked reagent.

Assay [9] has the same target. Briefly: SPR (BIAcore 3000, 25 C): human Bv8 coupled to CM5 chip, IgG injected; 1:1 Langmuir fit; off-rate followed for 30 min.
Text: as §1
This is another data set of the same source.

Assay [10] addresses Cynomologus Monkey Bv8 (Genentech; PUR21590) (cynomolgus monkey). Kind of assay: SPR (BIAcore 3000, 25 C): cynomolgus monkey Bv8 coupled to CM5 chip, IgG injected; 1:1 Langmuir fit. This is another data set of the same source.
Assay [11] addresses T1, recombinant human Bv8 (PeproTech). Briefly: phage competition ELISA, Fab displayed on phage. On the procedure: (§2) MAXISORP™ microtiter plates were coated with recombinant human Bv8 (PeproTech) at 2 μg/ml in PBS overnight and then blocked with PBST buffer (0.5% BSA and 0.05% Tween 20 in PBS) for an hour at room temperature (RT). Phage from culture supernatants were incubated with serially diluted human Bv8 in PBST buffer in a tissue-culture microtiter plate for an hour at RT, after which 80 μl of the mixture was transferred to the target-coated wells for 15 minutes to capture unbound phage. The plate was washed with PBT buffer (0.05% Tween 20 in PBS), and HRP-conjugated anti-M13 (Amersham Pharmacia Biotech) was added (1:5000 in PBST buffer) for 40 minutes. The plate was washed with PBT buffer and developed by adding tetramethylbenzidine substrate (Kirkegaard and Perry Laboratories, Gaithersburg, Md.). The absorbance at 450 nm was plotted as a function of target concentration in solution to determine phage IC₅₀.

Assay [12] has the same target. Kind of assay: phage competition ELISA: Fab-displaying phage preincubated with serially diluted soluble human Bv8 (the concentration on the axis), unbound phage captured on plate-coated human Bv8, anti-M13-HRP; bound phage in %. The protocol: as §2
The target is the same in assay [13]. Kind of assay: competition ELISA: IgG in serial dilution preincubated with 2 nM biotinylated human Bv8, then put on plate coated with chimeric 2B9 IgG (the competitor); bound biotin-Bv8 read with streptavidin-HRP, in %. On the procedure: NUNC™ 96-well Maxisorp immunoplates (NUNC; Roskilde, Denmark) were coated with chimeric 2B9 IgG at 1 μg/mL in PBS overnight and then blocked for an hour at room temperature with PBST buffer (0.5% BSA and 0.05% Tween 20 in PBS). Biotinylation of human Bv8 was prepared using EZ-link Sulfo-NHS-LC-Biotin (Catalog 21335; Pierce; Rockford, Ill.) reagent in a molar ratio of 1:4 (HuBv8: biotin).
To determine the amount of biotinylated human Bv8 in the competition assay, threefold serially diluted biotinylated human Bv8 from 100 nM to 0.04 nM were added to the antibody-coated plates for 15 minutes. Then, the plates were washed with PBT buffer (PBS and 0.05% Tween 20). Bound biotinylated were detected using streptavidin, which were conjugated with horseradish peroxidase (Catalog 21126; Pierce; Rockford, Ill.) and diluted 1:2500 in PBST buffer. […] The optical density was read spectrophotometrically at 450 nm.
To map the Bv8 antibody epitopes with chimeric 2B9, threefold serial dilutions of IgGs (chimeric 2B9, chimeric 3F1, chimeric 2D3, chimeric 2G9 and control IgG) were first incubated with 2 nM biotinylated human Bv8, determined by the above binding assay, in PBST buffer for 1-2 hours at room temperature, and then transferring it onto antibody (chimeric 2B9 IgG; 1 μg/mL)-coated plate for 15 min. […]

B1: h2G9.K4G1.v19 IgG (antibody, V domains shown)
VH: EVQLVQSGAEVKKPGASVKVSCKASGYSLTNYDMHWVRQAPGQGLEWIGYIHSYSGSTLYNQKFKGRVTITVDKSTSTAYLELSSLRSEDTAVYYCARDSNYGEAYAMDYWGQGTLVTVSS
VL: DIVMTQSPDSLAVSLGERATINCKASQSVDYSGDSYMNWYQQKPGQPPKLLIYAASNLESGVPDRFSGSGSGTDFTLTISSLQAEDVAVYYCQQINEDPFTFGQGTKVEIKR
notes: Variable domains only; IgG, constant regions not described; claims 6 and 7); also called humanized 2G9 variant 19
With B1, the on-rate constant (kon) in assay [1] stood at 501000 M⁻¹ s⁻¹; in assay [4], 760000 M⁻¹ s⁻¹; in [5], 760000 M⁻¹ s⁻¹. In addition, the figures for the fold tighter binding than chimeric 2G9 in assay [2] and in assay [6] were greater than 2 fold and no less than 2 fold, respectively. Besides, the results for the Kd in [3], in [7] and in [9] were no more than 0.007 nM, less than 0.009 nM and no more than 0.007 nM, respectively. Besides, the results for the koff in [3], in assay [7] and in assay [9] were no more than 5e-06 s⁻¹, less than 5e-06 s⁻¹ and no more than 5e-06 s⁻¹, respectively. In addition, in assay [8], the concentration for half-maximal inhibition (IC50) came to 0.014 nM.

B2: h2G9.K4G1.v55 IgG (antibody, V domains shown)
VH: EVQLVQSGAEVKKPGASVKVSCKASGYSFTDYDMHWVRQAPGQGLEWIGYISSYSGATTYNQKFKGRVTITVDKSTSTAYLELSSLRSEDTAVYYCARDSNYGEAYAMDYWGQGTLVTVSS
VL: DIVMTQSPDSLAVSLGERATINCKASQSLDYYHYSYMNWYQQKPGQPPKLLIYAASNRESGVPDRFSGSGSGTDFTLTISSLQAEDVAVYYCQQINEDPFTFGQGTKVEIKR
notes: Variable domains only; IgG, constant regions not described; claims 8 and 9); also called humanized 2G9 variant 55
Regarding B2, the on-rate constant (kon) in assay [1] was found to be 775000 M⁻¹ s⁻¹; in [10] it was 780000 M⁻¹ s⁻¹; in assay [4], 945000 M⁻¹ s⁻¹; in assay [5], 950000 M⁻¹ s⁻¹. Further, the fold tighter binding than chimeric 2G9 in assay [2] is greater than 2 fold; in [6] it was no less than 2 fold. Further, the equilibrium dissociation constant (Kd) in assay [3] was no more than 0.005 nM; in assay [7] it was less than 0.006 nM; in assay [9], no more than 0.005 nM. The values for the koff in assay [3], in assay [7] and in [9] were no more than 5e-06 s⁻¹, less than 5e-06 s⁻¹ and no more than 5e-06 s⁻¹, respectively. Further, the IC50 in assay [8] was determined as 0.013 nM.

B3: h2G9.K4G1 variant CDR-H3 D95E (Fab, V domains shown)
VH: EVQLVQSGAEVKKPGASVKVSCKASGYSFTDYDMHWVRQAPGQGLEWIGYISCYNGATTYNQKFKGRVTITVDKSTSTAYLELSSLRSEDTAVYYCAREGNYGEAYAMDYWGQGTLVTVSS
VL: DIVMTQSPDSLAVSLGERATINCKASQSVDYDGDSYMNWYQQKPGQPPKLLIYAASNLESGVPDRFSGSGSGTDFTLTISSLQAEDVAVYYCQQINEDPFTFGQGTKVEIK
For B3, in [11], the “fold drop in binding affinity compared to h2G9.K4G1” value worked out at 100 fold. Moreover, in [12], the “IC50 (read off the curve)” value is roughly 4 nM.

B4: chimeric 2G9 anti-Bv8 antibody (IgG) (antibody, V domains shown)
VH: EVQLQQSGPEVVKTGASVKISCKASGYSFTDYDMHWVKQSQGKSLEWIGYISCYNGATTYNQKFKGKATFTVDKSSTTAYMQFNSLTSEDSAVYYCARDGNYGEAYAMDYWGQGTSLTVSS
VL: DIVLTQSPASLAVSLGQRATISCKASQSVDYDGDSYMNWYQQKPGQPPKLLIYAASNLESGIPARFSGSGSGTDFTLNIHPVEEEDAATYYCQQINEDPFTFGQGTKVEIK
notes: also called chimeric 2G9 IgG
In the case of B4, in [1], the Kd was 0.04 nM, the koff stood at 2.5e-05 s⁻¹ and the association rate constant (kon) was found to be 646000 M⁻¹ s⁻¹. Moreover, in assay [13], the “IC50 (read off the curve)” value was roughly 1 nM. In assay [4], the Kd was 0.02 nM, the dissociation rate constant (koff) is 1.8e-05 s⁻¹ and the kon was determined as 758000 M⁻¹ s⁻¹. Further, the half-maximal inhibitory concentration (IC50) in assay [8] was 0.08 nM.

By kon is commonly meant the rate constant with which the complex forms. The Kd is a measure of binding affinity in units of concentration. As a reminder, the koff is a measure of how fast the partners let go of each other. A word on the IC50: it is the concentration that gives 50% inhibition.
